Results as given in PMC11813165.
Read-outs that look alike come from different tables or passages of the source.

How the values were obtained:
[1] = target: NiV (Bangladesh strain) L (full-length, with C-terminal triple strep tag) (Nipah virus (Bangladesh strain)) (UniProt Q997F0); assay: mass photometry
[2] = target: NiV (Bangladesh strain) L (full-length, with C-terminal triple strep tag) (Nipah virus (Bangladesh strain)) (UniProt Q997F0); assay: mass photometry; remark: listed apart in the source

NiV (Bangladesh strain) P (full-length, with N-terminal polyhistidine tag) (from UniProt Q4VCQ1 1-709) (natural protein)
stoichiometry N [1]: 3 | stoichiometry N [2]: 4
